Measured values published in patent US20260217863A1, “ANTIBODY OR PEPTIDE BINDING SPECIFICALLY TO RNASE A, IMMUNOASSAY DEVICE AND METHOD FOR DETECTING RNASE A, AND METHOD FOR COLLECTING RNASE A” (UIF (University Industry Foundation), Yonsei University, priority 2022, published 2026).
Positions count from the first letter of the chain named.

B1: Fv variant clone 5, surface-expressed on the outer membrane of E. coli (protein, part only; not given: AIDA-1 display anchor and linker, not shown: another chain or arm of the molecule; large carriers; small tags and cut ends)
VH: EVQLVESAAEVRRPGASVKITCKASGYSFSTYGIQWMRQAPGQRPEWLGWIHAGTGGTKYSRKFQGRITITRDTSANTVYLDLNSLTSEDTAVYYCARCGPDSDVMTDFWGQGTTVTVSS
B2: Fv variant clone 23, surface-expressed on the outer membrane of E. coli (protein, part only; not given: AIDA-1 display anchor and linker, not shown: another chain or arm of the molecule; large carriers; small tags and cut ends)
VH: B1 VH with C99Y, D102V, S103G, D104R, M106K, T107R, F109D
B3: Fv variant clone 39, surface-expressed on the outer membrane of E. coli (protein, part only; not given: AIDA-1 display anchor and linker, not shown: another chain or arm of the molecule; large carriers; small tags and cut ends)
VH: B1 VH with C99D, P101T, D102A, S103K, D104K, V105S, M106R, T107K, F109D

Target: Ribonuclease A (Type II-A) from bovine pancreas (bovine) (UniProt P61823)
Sequence (P61823 27-150): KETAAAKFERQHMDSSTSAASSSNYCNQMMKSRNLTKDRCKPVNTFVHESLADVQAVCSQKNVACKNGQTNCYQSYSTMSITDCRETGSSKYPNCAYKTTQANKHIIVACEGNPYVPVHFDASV
Test: flow cytometry (FL1-H) of E. coli displaying the Fv variant, incubated with fluorescence-labeled RNase-A

| Binder | fluorescence intensity, at 3.125 µM fluorescence-labeled RNase-A [a.u.] | fluorescence intensity, at 6.25 µM fluorescence-labeled RNase-A [a.u.] | fluorescence intensity, at 12.5 µM fluorescence-labeled RNase-A [a.u.] | fluorescence intensity, at 25 µM fluorescence-labeled RNase-A [a.u.] | fluorescence intensity, at 50 µM fluorescence-labeled RNase-A [a.u.] | fluorescence intensity, at 100 µM fluorescence-labeled RNase-A [a.u.] |
| --- | --- | --- | --- | --- | --- | --- |
| B1 | 31.5 | 44.7 | 72.3 | 108 | 167 | 196 |
| B2 | 14 | 17.2 | 23.8 | 37.5 | 47.9 | 69.7 |
| B3 | 15.5 | 19.9 | 23.3 | 31.8 | 37.8 | 51.9 |

Target: Ribonuclease A (Type II-A) from bovine pancreas (bovine) (UniProt P61823)
Test: flow cytometry, E. coli surface-displayed Fv, titration of fluorescently labeled RNase A, fit with an adsorption model

| Binder | Kd [µM] |
| --- | --- |
| B1 | 23.8 |
| B2 | 29.4 |
| B3 | 28.7 |
